Assay results as given in the RNAGym collection of RNA variant scans (doi:10.7554/elife.80360).

B1: Twister Ribozyme (parent)
chain: AACACUGCCAAUGCCGGUCCCAAGCCCGGAUAAAAGUGGAGGGGGCGG

Variants of: B1
Test: self-cleavage, relative activity (ratio to wild type); higher = more cleavage; co-transcriptional

Row | Variant | self-cleavage
1 | C8U C27A | 0.0891
2 | C8U C27G | 0.0565
3 | C8U C27U | 0.288
4 | A10C A30U | 1.11
5 | A10U | 0.982
6 | A10G | 1.02
7 | A10C | 1.01
8 | A10U A11U | 1.14
9 | A10U A11G | 1.09
10 | A10U A11C | 1.03
11 | C9U C25G | 0.113
12 | A10C G44A | 0.932
13 | A10C G44C | 0.867
14 | C8U G38C | 0.644
15 | A10G G38C | 0.93
16 | A10G G38U | 0.91
17 | A10C C21U | 0.122
18 | A10C C21A | 0.124
19 | A10C A34C | 0.283
20 | A10C A34U | 0.951
21 | A10C A34G | 0.88
22 | C9U G38U | 0.395
23 | A10G G45A | 1.13
24 | A10G G45U | 0.883

Row | Variant | self-cleavage
25 | A10G G39U | 0.287
26 | A10G G39C | 0.119
27 | A10C C14A | 1.05
28 | C9U A11G | 0.597
29 | C9U A11U | 0.84
30 | C9A U18G | 0.159
31 | C8U G45A | 0.492
32 | C8U G45C | 0.141
33 | A10G U12A | 1.03
34 | A10G U12G | 1.07
35 | C8U G13A | 0.342
36 | C8U G13C | 0.121
37 | C8U G43A | 0.145
38 | C8U G43C | 0.101
39 | A10C C20A | 0.199
40 | C9A G16U | 0.254
41 | C9A C19U | 0.197
42 | A10C A23G | 0.453
43 | C9A A33C | 0.603
44 | C9U G17C | 0.0426
45 | C9U G17U | 0.102
46 | A10C A32C | 0.821
47 | C9U A35U | 0.767
48 | C8U G29U | 0.577

Row | Variant | self-cleavage
49 | C8U G29A | 0.516
50 | A10U A33C | 1.08
51 | C9A C21G | 0.164
52 | C9A C21U | 0.0545
53 | C9A C21A | 0.0865
54 | C9A G36U | 0.0953
55 | C9A G36A | 0.178
56 | C9U G24U | 0.0861
57 | C9A G38U | 0.32
58 | C8U C19U | 0.35
59 | C9G G48U | 0.377
60 | C9G C46A | 0.376
61 | C9G C46U | 0.609
62 | C9U C26U | 0.086
63 | C9U C26A | 0.0658
64 | C9U C26G | 0.0629
65 | A10G G41C | 0.384
66 | A10G G41U | 0.781
67 | A10G G41A | 0.748
68 | C9G A32C | 0.195
69 | C9G A32G | 0.731
70 | C9U G29A | 0.635
71 | C9G A35C | 0.556
72 | A10G C25A | 0.139

Row | Variant | self-cleavage
73 | A10G C25U | 0.874
74 | A10C U31A | 0.776
75 | A10C U31C | 0.834
76 | C9U U37C | 0.122
77 | C9U U37G | 0.419
78 | C9U U37A | 0.26
79 | C8U G28U | 0.467
80 | A10G G36C | 0.855
81 | A10G G36A | 0.786
82 | A10G G36U | 0.823
83 | A10G C19G | 0.677
84 | C9A U37G | 0.33
85 | C9A U37A | 0.233
86 | A10G A33C | 1.03
87 | A10G A33U | 0.963
88 | A10G G28U | 1.04
89 | A10G G28A | 1.08
90 | C8U G24U | 0.177
91 | C9G G41A | 0.168
92 | C9U G13A | 1.03
93 | C9U G13C | 0.592
94 | A10G G43U | 0.576
95 | C8U U18G | 0.0414
96 | C8U U18C | 0.0906

Row | Variant | self-cleavage
97 | C9U A30U | 0.579
98 | C9G G28A | 0.512
99 | C9G G28U | 0.428
100 | C9G G28C | 0.495
101 | C8U C26A | 0.117
102 | C9U G43A | 0.137
103 | C9U G43U | 0.126
104 | C9A G29C | 0.307
105 | C9A G29U | 0.686
106 | C9A G29A | 0.627
107 | C9U A10U | 0.399
108 | C9U A10C | 0.948
109 | C9G G16U | 0.346
110 | C8U U12G | 0.429
111 | C8U U37G | 0.382
112 | A10C C19A | 0.214
113 | A10C C19U | 0.802
114 | C9G A33U | 0.689
115 | C9G A33G | 0.548
116 | C9G A33C | 0.548
117 | A10G C46U | 1.02
118 | C9U U31C | 0.708
119 | C9U U31A | 0.667
120 | C9G A34G | 0.238

Row | Variant | self-cleavage
121 | C9G A34C | 0.134
122 | C9G G43U | 0.134
123 | C8U G42U | 0.133
124 | C8U G42A | 0.127
125 | A10G U31A | 0.696
126 | A10G U31G | 0.994
127 | A10G U31C | 0.817
128 | A10U A30U | 0.922
129 | A10U A30C | 0.784
130 | A10U A30G | 0.915
131 | C9A C20U | 0.15
132 | C9A C20A | 0.0653
133 | C9U C14U | 0.596
134 | C9U C14A | 0.56
135 | A10C A11U | 0.883
136 | A10C A11C | 0.907
137 | A10C A11G | 1.12
138 | C9U A32U | 0.585
139 | C9U A32C | 0.64
140 | C8U G44U | 0.603
141 | A10G G24A | 0.178
142 | C9U G42A | 0.153
143 | C9G A40G | 0.109
144 | C9G A40U | 0.151

Row | Variant | self-cleavage
145 | C9G A40C | 0.102
146 | C9A C25A | 0.0586
147 | C9U A22C | 0.779
148 | C9U A22U | 0.313
149 | C9U A22G | 0.0671
150 | A10G G42A | 0.509
151 | C9U A34C | 0.131
152 | A10C G48A | 0.822
153 | A10C G48U | 1.01
154 | A10G C27A | 0.682
155 | A10G C27G | 0.105
156 | C9A G44U | 0.544
157 | A10C G45A | 0.881
158 | A10C G45C | 0.661
159 | C9G G17A | 0.103
160 | C9A G45U | 0.232
161 | A10G G17U | 0.388
162 | C9A G42A | 0.149
163 | C9A G42U | 0.149
164 | C9G U12A | 0.968
165 | C9G G29A | 0.596
166 | C9G G29C | 0.396
167 | C9G G29U | 0.447
